Results as given in patent US20190040132A1 (FRED HUTCHINSON CANCER RESEARCH CENTER, published 2019).

Target: T1, human ROR2 (human, UniProt Q01974 34-943)
T1 construct: also called K562 expressing human ROR2
Experiment: IHC on FFPE K562 cells transduced with human ROR2

T1 sequence (Q01974 34-943 limits assumed): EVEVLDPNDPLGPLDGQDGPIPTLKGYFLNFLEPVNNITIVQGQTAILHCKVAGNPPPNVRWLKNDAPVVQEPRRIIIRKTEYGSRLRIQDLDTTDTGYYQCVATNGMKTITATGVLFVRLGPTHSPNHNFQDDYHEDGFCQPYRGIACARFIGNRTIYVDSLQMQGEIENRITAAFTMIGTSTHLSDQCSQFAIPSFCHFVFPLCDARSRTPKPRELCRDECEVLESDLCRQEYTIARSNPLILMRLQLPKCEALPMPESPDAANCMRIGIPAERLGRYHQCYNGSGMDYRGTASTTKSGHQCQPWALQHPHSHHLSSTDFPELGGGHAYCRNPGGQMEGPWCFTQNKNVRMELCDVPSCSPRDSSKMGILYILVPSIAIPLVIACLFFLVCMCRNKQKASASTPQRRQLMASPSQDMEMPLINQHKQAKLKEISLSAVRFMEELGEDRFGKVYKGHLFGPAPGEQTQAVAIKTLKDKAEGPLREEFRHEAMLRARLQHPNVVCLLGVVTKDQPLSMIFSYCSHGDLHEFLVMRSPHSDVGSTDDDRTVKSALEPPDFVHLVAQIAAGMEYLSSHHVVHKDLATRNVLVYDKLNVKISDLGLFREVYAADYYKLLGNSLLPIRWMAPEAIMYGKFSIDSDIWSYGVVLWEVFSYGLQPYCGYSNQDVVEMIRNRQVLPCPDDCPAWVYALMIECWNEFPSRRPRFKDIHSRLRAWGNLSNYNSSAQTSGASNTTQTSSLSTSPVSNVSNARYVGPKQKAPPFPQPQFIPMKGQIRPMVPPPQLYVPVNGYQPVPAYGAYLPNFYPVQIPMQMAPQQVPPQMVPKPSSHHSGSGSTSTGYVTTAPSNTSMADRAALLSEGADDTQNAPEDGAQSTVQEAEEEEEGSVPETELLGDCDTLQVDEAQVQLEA

- binding result: no binding
B1: anti-ROR1 monoclonal antibody 6D4 (antibody, V domains shown)
VH: SGPELVKPGTSVKMSCKASGYTFTDYYMNWVKQTHGKNLEWIGRVNPSNGNTDYNQKFKGKATLTVDKSLSTAYMQLSSLTSEDSAVYYCGRLAYWGQGSLVTVSA
VL: LTQSPASLAVSPGQRATISCKASQSVDYDGETYMNWYQQKSGQPPKLLIYAASNLESGIPARFSGSGSGTDFTLNIHPVEEEDAATYYCLQTLKNPYTFGGGTKLEIK
notes: Mouse monoclonal antibody from a hybridoma, used as supernatant or purified; also called mAb 6D4; clone 6D4
